In paper PMC9482650, “Quantitative fragmentomics allow affinity mapping of interactomes” (Nature Communications, 2022):

T1: MPDZ_12, O75970
T1 sequence (O75970 1857-1958, limits assumed, looked up): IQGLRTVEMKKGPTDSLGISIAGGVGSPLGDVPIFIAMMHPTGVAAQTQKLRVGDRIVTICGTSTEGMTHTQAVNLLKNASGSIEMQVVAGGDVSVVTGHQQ

T2: PDZRN3_1, Q9UPQ7
T2 sequence (Q9UPQ7 244-349, limits assumed, looked up): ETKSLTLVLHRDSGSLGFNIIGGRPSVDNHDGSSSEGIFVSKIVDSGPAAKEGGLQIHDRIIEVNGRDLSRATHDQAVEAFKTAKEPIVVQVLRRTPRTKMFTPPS

T3: LIN7B, Q9HAP6
T3 sequence (Q9HAP6 88-185, limits assumed, looked up): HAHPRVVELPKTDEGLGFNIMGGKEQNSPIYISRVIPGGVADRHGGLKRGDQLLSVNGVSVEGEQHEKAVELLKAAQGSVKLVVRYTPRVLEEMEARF

T4: MPDZ_10, O75970
T4 sequence (O75970 1624-1722, limits assumed, looked up): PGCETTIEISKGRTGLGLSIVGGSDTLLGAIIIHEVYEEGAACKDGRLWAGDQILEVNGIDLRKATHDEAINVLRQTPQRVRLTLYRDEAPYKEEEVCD

T5: MPDZ_5, O75970
T5 sequence (O75970 695-796, limits assumed, looked up): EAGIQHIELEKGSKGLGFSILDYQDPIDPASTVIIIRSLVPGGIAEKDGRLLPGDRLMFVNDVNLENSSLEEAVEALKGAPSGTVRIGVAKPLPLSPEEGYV

T6: RAPGEF6, Q8TEU7
T6 sequence (Q8TEU7 525-625, limits assumed, looked up): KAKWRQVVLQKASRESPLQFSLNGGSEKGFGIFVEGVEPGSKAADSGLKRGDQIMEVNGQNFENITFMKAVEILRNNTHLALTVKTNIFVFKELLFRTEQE

T7: DLG3_2, Q92796
T7 sequence (Q92796 221-321, limits assumed, looked up): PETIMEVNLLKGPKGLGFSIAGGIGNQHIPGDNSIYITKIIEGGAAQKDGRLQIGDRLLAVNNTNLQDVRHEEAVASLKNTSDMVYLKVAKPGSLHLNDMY

T8: SIPA1L2, Q9P2F8
T8 sequence (Q9P2F8 945-1036, limits assumed, looked up): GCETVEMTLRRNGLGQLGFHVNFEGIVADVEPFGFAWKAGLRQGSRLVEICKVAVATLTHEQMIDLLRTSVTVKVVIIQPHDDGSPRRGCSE

T9: DLG3_1, Q92796
T9 sequence (Q92796 125-227, limits assumed, looked up): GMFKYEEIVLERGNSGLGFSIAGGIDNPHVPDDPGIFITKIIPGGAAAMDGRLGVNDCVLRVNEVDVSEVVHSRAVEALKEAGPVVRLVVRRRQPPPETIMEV

T10: SNTG2, Q9NY99
T10 sequence (Q9NY99 68-166, limits assumed, looked up): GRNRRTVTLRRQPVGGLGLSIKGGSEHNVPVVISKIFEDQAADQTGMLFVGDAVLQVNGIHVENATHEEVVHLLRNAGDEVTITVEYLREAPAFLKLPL

T11: NHERF3_3, Q5T2W1
T11 sequence (Q5T2W1 238-333, limits assumed, looked up): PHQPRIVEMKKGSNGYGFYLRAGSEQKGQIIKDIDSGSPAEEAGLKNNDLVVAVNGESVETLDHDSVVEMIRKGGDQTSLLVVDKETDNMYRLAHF

T12: DFNB31_1, Q9P202
T12 sequence (Q9P202 135-233, limits assumed, looked up): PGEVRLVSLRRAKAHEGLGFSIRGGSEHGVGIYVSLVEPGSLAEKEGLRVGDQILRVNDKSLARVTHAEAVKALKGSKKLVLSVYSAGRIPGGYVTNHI


Molecular target: GRID2IP_1, A4D2P6
Assay: holdup assay
Design: key: below the threshold = too weak to quantify, mostly under pKd 3.1 to 4
Details: plain residues with an end cap or a label only (N-terminal biotin on a linker: ado-ado)

Sequence of GRID2IP_1, A4D2P6 (A4D2P6 1-87): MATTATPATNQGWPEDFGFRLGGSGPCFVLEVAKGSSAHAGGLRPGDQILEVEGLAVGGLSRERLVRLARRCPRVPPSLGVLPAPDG

Binder | pKd
NTLNRKTTPV [CACNG8, Q8WXS5] | below the threshold
PTPDLPQTRV [KLHDC7A, Q5VTJ3] | below the threshold
ARGPPRESEV [FAM110D, Q8TAY7] | below the threshold

Molecular target: T1, MPDZ_12, O75970
Assay: holdup assay
Design: key: below the threshold = too weak to quantify, mostly under pKd 3.1 to 4
Details: plain residues with an end cap or a label only (N-terminal biotin on a linker: ado-ado)

Binder | pKd
NTLNRKTTPV [CACNG8, Q8WXS5] | below the threshold
PTPDLPQTRV [KLHDC7A, Q5VTJ3] | below the threshold
ARGPPRESEV [FAM110D, Q8TAY7] | below the threshold

Molecular target: T2, PDZRN3_1, Q9UPQ7
Assay: holdup assay
Design: key: below the threshold = too weak to quantify, mostly under pKd 3.1 to 4
Details: plain residues with an end cap or a label only (N-terminal biotin on a linker: ado-ado)

Binder | pKd
NTLNRKTTPV [CACNG8, Q8WXS5] | 3.97
PTPDLPQTRV [KLHDC7A, Q5VTJ3] | 3.53
ARGPPRESEV [FAM110D, Q8TAY7] | 5.07

Molecular target: FRMPD2_3, Q68DX3
Assay: holdup assay
Design: key: below the threshold = too weak to quantify, mostly under pKd 3.1 to 4
Details: plain residues with an end cap or a label only (N-terminal biotin on a linker: ado-ado)

Sequence of FRMPD2_3, Q68DX3 (Q68DX3 1073-1166): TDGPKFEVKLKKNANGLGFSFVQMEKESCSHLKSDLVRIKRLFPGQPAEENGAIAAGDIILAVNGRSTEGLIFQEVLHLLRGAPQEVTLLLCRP

Binder | pKd
NTLNRKTTPV [CACNG8, Q8WXS5] | below the threshold
PTPDLPQTRV [KLHDC7A, Q5VTJ3] | below the threshold
ARGPPRESEV [FAM110D, Q8TAY7] | below the threshold

Molecular target: T3, LIN7B, Q9HAP6
Assay: holdup assay
Design: key: below the threshold = too weak to quantify, mostly under pKd 3.1 to 4
Details: plain residues with an end cap or a label only (N-terminal biotin on a linker: ado-ado)

Binder | pKd
NTLNRKTTPV [CACNG8, Q8WXS5] | below the threshold
PTPDLPQTRV [KLHDC7A, Q5VTJ3] | 3.89
ARGPPRESEV [FAM110D, Q8TAY7] | below the threshold

Molecular target: NHERF4_4, Q86UT5
Assay: holdup assay
Design: key: below the threshold = too weak to quantify, mostly under pKd 3.1 to 4
Details: plain residues with an end cap or a label only (N-terminal biotin on a linker: ado-ado)

Sequence of NHERF4_4, Q86UT5 (Q86UT5 464-550): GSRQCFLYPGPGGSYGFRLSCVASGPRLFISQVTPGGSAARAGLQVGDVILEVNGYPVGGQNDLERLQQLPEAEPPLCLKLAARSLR

Binder | pKd
NTLNRKTTPV [CACNG8, Q8WXS5] | 3.99
PTPDLPQTRV [KLHDC7A, Q5VTJ3] | below the threshold
ARGPPRESEV [FAM110D, Q8TAY7] | below the threshold

Molecular target: LDB3, O75112
Assay: holdup assay
Design: key: below the threshold = too weak to quantify, mostly under pKd 3.1 to 4
Details: plain residues with an end cap or a label only (N-terminal biotin on a linker: ado-ado)

Sequence of LDB3, O75112 (O75112 1-94): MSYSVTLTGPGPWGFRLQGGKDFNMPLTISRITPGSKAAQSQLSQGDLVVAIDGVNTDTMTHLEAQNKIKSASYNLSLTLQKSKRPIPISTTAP

Binder | pKd
NTLNRKTTPV [CACNG8, Q8WXS5] | below the threshold
PTPDLPQTRV [KLHDC7A, Q5VTJ3] | below the threshold
ARGPPRESEV [FAM110D, Q8TAY7] | below the threshold

Molecular target: T4, MPDZ_10, O75970
Assay: holdup assay
Design: key: below the threshold = too weak to quantify, mostly under pKd 3.1 to 4
Details: plain residues with an end cap or a label only (N-terminal biotin on a linker: ado-ado)

Binder | pKd
NTLNRKTTPV [CACNG8, Q8WXS5] | 3.84
PTPDLPQTRV [KLHDC7A, Q5VTJ3] | 3.52
ARGPPRESEV [FAM110D, Q8TAY7] | below the threshold

Molecular target: SCRIB_1, Q14160
Assay: holdup assay
Design: key: below the threshold = too weak to quantify, mostly under pKd 3.1 to 4
Details: plain residues with an end cap or a label only (N-terminal biotin on a linker: ado-ado)

Sequence of SCRIB_1, Q14160 (Q14160 718-814): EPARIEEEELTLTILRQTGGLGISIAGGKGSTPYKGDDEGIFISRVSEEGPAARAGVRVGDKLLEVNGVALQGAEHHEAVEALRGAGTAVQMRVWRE

Binder | pKd
NTLNRKTTPV [CACNG8, Q8WXS5] | 3.64
PTPDLPQTRV [KLHDC7A, Q5VTJ3] | below the threshold
ARGPPRESEV [FAM110D, Q8TAY7] | 4.88

Molecular target: T5, MPDZ_5, O75970
Assay: holdup assay
Design: key: below the threshold = too weak to quantify, mostly under pKd 3.1 to 4
Details: plain residues with an end cap or a label only (N-terminal biotin on a linker: ado-ado)

Binder | pKd
NTLNRKTTPV [CACNG8, Q8WXS5] | below the threshold
PTPDLPQTRV [KLHDC7A, Q5VTJ3] | below the threshold
ARGPPRESEV [FAM110D, Q8TAY7] | below the threshold

Molecular target: T6, RAPGEF6, Q8TEU7
Assay: holdup assay
Design: key: below the threshold = too weak to quantify, mostly under pKd 3.1 to 4
Details: plain residues with an end cap or a label only (N-terminal biotin on a linker: ado-ado)

Binder | pKd
NTLNRKTTPV [CACNG8, Q8WXS5] | below the threshold
PTPDLPQTRV [KLHDC7A, Q5VTJ3] | below the threshold
ARGPPRESEV [FAM110D, Q8TAY7] | below the threshold

Molecular target: Inadl_5, Q8NI35
Assay: holdup assay
Design: key: below the threshold = too weak to quantify, mostly under pKd 3.1 to 4
Details: plain residues with an end cap or a label only (N-terminal biotin on a linker: ado-ado)

Sequence of Inadl_5, Q8NI35 (Q8NI35 673-780): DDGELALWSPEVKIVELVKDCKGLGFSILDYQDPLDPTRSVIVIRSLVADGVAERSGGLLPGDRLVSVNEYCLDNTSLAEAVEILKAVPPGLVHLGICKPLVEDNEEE

Binder | pKd
NTLNRKTTPV [CACNG8, Q8WXS5] | below the threshold
PTPDLPQTRV [KLHDC7A, Q5VTJ3] | below the threshold
ARGPPRESEV [FAM110D, Q8TAY7] | below the threshold

Molecular target: NHERF4_2, Q86UT5
Assay: holdup assay
Design: key: below the threshold = too weak to quantify, mostly under pKd 3.1 to 4
Details: plain residues with an end cap or a label only (N-terminal biotin on a linker: ado-ado)

Sequence of NHERF4_2, Q86UT5 (Q86UT5 220-308): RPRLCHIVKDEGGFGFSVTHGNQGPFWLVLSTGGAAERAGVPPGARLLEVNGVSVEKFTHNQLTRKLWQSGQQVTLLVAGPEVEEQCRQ

Binder | pKd
NTLNRKTTPV [CACNG8, Q8WXS5] | 3.53
PTPDLPQTRV [KLHDC7A, Q5VTJ3] | below the threshold
ARGPPRESEV [FAM110D, Q8TAY7] | below the threshold

Molecular target: T7, DLG3_2, Q92796
Assay: holdup assay
Design: key: below the threshold = too weak to quantify, mostly under pKd 3.1 to 4
Details: plain residues with an end cap or a label only (N-terminal biotin on a linker: ado-ado)

Binder | pKd
NTLNRKTTPV [CACNG8, Q8WXS5] | 4.59
PTPDLPQTRV [KLHDC7A, Q5VTJ3] | 4
ARGPPRESEV [FAM110D, Q8TAY7] | 5.19

Molecular target: T8, SIPA1L2, Q9P2F8
Assay: holdup assay
Design: key: below the threshold = too weak to quantify, mostly under pKd 3.1 to 4
Details: plain residues with an end cap or a label only (N-terminal biotin on a linker: ado-ado)

Binder | pKd
NTLNRKTTPV [CACNG8, Q8WXS5] | below the threshold
PTPDLPQTRV [KLHDC7A, Q5VTJ3] | below the threshold
ARGPPRESEV [FAM110D, Q8TAY7] | below the threshold

Molecular target: T9, DLG3_1, Q92796
Assay: holdup assay
Design: key: below the threshold = too weak to quantify, mostly under pKd 3.1 to 4
Details: plain residues with an end cap or a label only (N-terminal biotin on a linker: ado-ado)

Binder | pKd
NTLNRKTTPV [CACNG8, Q8WXS5] | 3.58
PTPDLPQTRV [KLHDC7A, Q5VTJ3] | below the threshold
ARGPPRESEV [FAM110D, Q8TAY7] | 4.3

Molecular target: Inadl_3, Q8NI35
Assay: holdup assay
Design: key: below the threshold = too weak to quantify, mostly under pKd 3.1 to 4
Details: plain residues with an end cap or a label only (N-terminal biotin on a linker: ado-ado)

Sequence of Inadl_3, Q8NI35 (Q8NI35 359-469): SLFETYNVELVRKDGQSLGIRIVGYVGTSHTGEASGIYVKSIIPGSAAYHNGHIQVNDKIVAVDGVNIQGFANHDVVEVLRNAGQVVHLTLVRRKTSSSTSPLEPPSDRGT

Binder | pKd
NTLNRKTTPV [CACNG8, Q8WXS5] | below the threshold
PTPDLPQTRV [KLHDC7A, Q5VTJ3] | below the threshold
ARGPPRESEV [FAM110D, Q8TAY7] | below the threshold

Molecular target: DLG1_3, Q12959
Assay: holdup assay
Design: key: below the threshold = too weak to quantify, mostly under pKd 3.1 to 4
Details: plain residues with an end cap or a label only (N-terminal biotin on a linker: ado-ado)

Sequence of DLG1_3, Q12959 (Q12959 457-571): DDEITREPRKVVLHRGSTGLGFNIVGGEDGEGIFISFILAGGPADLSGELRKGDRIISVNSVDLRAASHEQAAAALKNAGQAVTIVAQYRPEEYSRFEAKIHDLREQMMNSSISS

Binder | pKd
NTLNRKTTPV [CACNG8, Q8WXS5] | 4.33
PTPDLPQTRV [KLHDC7A, Q5VTJ3] | below the threshold
ARGPPRESEV [FAM110D, Q8TAY7] | 4.36

Molecular target: T10, SNTG2, Q9NY99
Assay: holdup assay
Design: key: below the threshold = too weak to quantify, mostly under pKd 3.1 to 4
Details: plain residues with an end cap or a label only (N-terminal biotin on a linker: ado-ado)

Binder | pKd
NTLNRKTTPV [CACNG8, Q8WXS5] | 3.75
PTPDLPQTRV [KLHDC7A, Q5VTJ3] | 5.24
ARGPPRESEV [FAM110D, Q8TAY7] | 4.4

Molecular target: TJP1_3, Q07157
Assay: holdup assay
Design: key: below the threshold = too weak to quantify, mostly under pKd 3.1 to 4
Details: plain residues with an end cap or a label only (N-terminal biotin on a linker: ado-ado)

Sequence of TJP1_3, Q07157 (Q07157 416-512): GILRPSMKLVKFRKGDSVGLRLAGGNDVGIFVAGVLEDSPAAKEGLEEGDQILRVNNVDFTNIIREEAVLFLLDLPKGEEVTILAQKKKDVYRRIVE

Binder | pKd
NTLNRKTTPV [CACNG8, Q8WXS5] | below the threshold
PTPDLPQTRV [KLHDC7A, Q5VTJ3] | below the threshold
ARGPPRESEV [FAM110D, Q8TAY7] | below the threshold

Molecular target: SNX27, Q96L92
Assay: holdup assay
Design: key: below the threshold = too weak to quantify, mostly under pKd 3.1 to 4
Details: plain residues with an end cap or a label only (N-terminal biotin on a linker: ado-ado)

Binder | pKd
NTLNRKTTPV [CACNG8, Q8WXS5] | 4.98
PTPDLPQTRV [KLHDC7A, Q5VTJ3] | 4.21
ARGPPRESEV [FAM110D, Q8TAY7] | 4.65

Molecular target: T11, NHERF3_3, Q5T2W1
Assay: holdup assay
Design: key: below the threshold = too weak to quantify, mostly under pKd 3.1 to 4
Details: plain residues with an end cap or a label only (N-terminal biotin on a linker: ado-ado)

Binder | pKd
NTLNRKTTPV [CACNG8, Q8WXS5] | below the threshold
PTPDLPQTRV [KLHDC7A, Q5VTJ3] | below the threshold
ARGPPRESEV [FAM110D, Q8TAY7] | below the threshold

Molecular target: T12, DFNB31_1, Q9P202
Assay: holdup assay
Design: key: below the threshold = too weak to quantify, mostly under pKd 3.1 to 4
Details: plain residues with an end cap or a label only (N-terminal biotin on a linker: ado-ado)

Binder | pKd
NTLNRKTTPV [CACNG8, Q8WXS5] | 3.95
PTPDLPQTRV [KLHDC7A, Q5VTJ3] | 4.79
ARGPPRESEV [FAM110D, Q8TAY7] | 3.75

Molecular target: AHNAK1, Q09666
Assay: holdup assay
Design: key: below the threshold = too weak to quantify, mostly under pKd 3.1 to 4
Details: plain residues with an end cap or a label only (N-terminal biotin on a linker: ado-ado)

Sequence of AHNAK1, Q09666 (Q09666 4-100): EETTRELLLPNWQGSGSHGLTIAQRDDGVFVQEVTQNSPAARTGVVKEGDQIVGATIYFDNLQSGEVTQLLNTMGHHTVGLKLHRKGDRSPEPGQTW

Binder | pKd
NTLNRKTTPV [CACNG8, Q8WXS5] | below the threshold
PTPDLPQTRV [KLHDC7A, Q5VTJ3] | below the threshold
ARGPPRESEV [FAM110D, Q8TAY7] | below the threshold
